Reference: the nanobody polyreactivity screen of Harvey et al. (2022)

experiment: yeast display, Sf9 membrane polyspecificity reagent, FACS + sequencing; frameworks hold sequencing errors
Method in brief: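 Sorting gates, low and high (top ~1%), were placed on anti-HA fluorescence to track expression and on streptavidin fluorescence to track reagent binding. A clone's polyreactivity label is taken from the gate it came out of. The reagent was 10% biotinylated, detergent-solubilized Sf9 membrane, applied for 1 hour at 4 °C to galactose-induced yeast display cells.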

Row | Sequence | polyreactivity (PSR sort gate)
1 | QVQLVESGGGLVQAGGSLRLSCAASGNIFSPYAMGWYRPAPGKERELVAAISSGDSTYYADSVKGRFTISRDNAKNTVYLQMNSLKPEDTAVYYCAADANYSNYQYYEFDYWGQGTQVTVSS | low polyreactivity
2 | QVQLVESGGGLVQAGGSLRLSCAASGNIFSRYAMGWYREPRGKERELVAAISSSGGTTYYADSVKGRFTISRDNAKNTVYLQMNSLKPEDTAVYYCNARRRQIYSEFGYWGQGTQVTVSS | high polyreactivity
3 | QVQLVESGGGLVQAGGSLRLSCAASGNIFSTYAMGWYRQAPGKERELVASISENGGSTYYADSVKGRFTISRDNAKNTVYLQMNSLKPEDTAVYYCNADAYVYFDDGDYWGQGTQVTVSS | low polyreactivity
4 | QVQLVESGGGLVQAGGSLRLSCAASGNIFTSNAMGWYRQAPGKERELVAAITSGGSTYYADSLKGRFTISRDNAKNTVYLQMISLKPEDTAVYYCATLRRPHLRPYYYWGQGTQVTVSS | high polyreactivity
5 | QVQLVESGGGLVQAGGSLRLSCAASGNIFTTYAMGWYRQAPGKERELVAAISRSGGRTNYADSVKGRFTISRDNAKNTVYLQLNSLKPEDTAVYYCAADGVPGRAVDYEYWGQGTQVTVSS | high polyreactivity
6 | QVQLVESGGGLVQAGGSLRLSCAASGNIFVAYAMGWYRQAPGKEREMVAAISSRGGRTYYADSVKGRFTISRDNAKNTVYLQMNSLKPEDTAVYYCATDVGYYRKYEYYYWGQGTQVTVSS | high polyreactivity
7 | QVQLVESGGGLVQAGGSLRLSCAASGNIFVFYVMGWYRQAPGNEREFVASFSSTGNTYYADSVKGRFTISRDNAKNTVYLQLNSLKPEDTAVYYCAADSHQNVSGWLRWPRMDYWGQGTQVTVSS | low polyreactivity
8 | QVQLVESGGGLVQAGGSLRLSCAASGNIFVNYAMGWYRQAPGKERELVASINYNGGNTYYADSVKGRFTISRDNAKNTVYLQMNSLKPEDTAVYYCAKDGGGLLRWYTDEYDYWGQGTQVTVSS | low polyreactivity
9 | QVQLVESGGGLVQAGGSLRLSCAASGNIFVRYSKGWYRQAPGKERELVAVISSGGSTNYADSVKGRFTISRDNAKNTVYLQMNSLKPEDSAVYYCARKYYSQAISSRKYGYWGQGTQVTVSS | high polyreactivity
10 | QVQLVESGGGLVQAGGSLRLSCAASGNIFVTYDMGWYRQAPGKEREMVASISWNGGSTHYADSVKGLFTISGDNAKYSVYLQMNSRKPEDTAVYYCAAEYWTSYADYRYDYWGQGTQVTVSS | low polyreactivity
11 | QVQLVESGGGLVQAGGSLRLSCAASGNIFYAYDMGWYRQAPGKERELVAAITNGDSTDYADSVKGRFTISRENAKNTVYLQMNSLKPEDTAVYYCNADYLPAPWALGGSQYDYCGQGTQVTVSS | low polyreactivity
12 | QVQLVESGGGLVQAGGSLRLSCAASGNIFYGYAMGWYRQAPGKERELVAAITSSGGGTSYADSVKGRFTISRDNAKNTVYLQMNSLKPVDTAVYYCTKRPWYLSDYWGQGTQVTVSS | low polyreactivity
13 | QVQLVESGGGLVQAGGSLRLSCAASGNIFYKNTMGWYRQAPGKERELVAAISVSGGGTYYADSVKGRFTISRDNAKNTVYLQMNSLKPEDTAVYYCAASHRRSGGQPRYYYWGQGTQVSVSS | high polyreactivity
14 | QVQLVESGGGLVQAGGSLRLSCAASGNIFYQYAMGWYRQAPGKEREFVAAISISGTSTYADSVKGRFTISRDNAKNTVYLQMNSLKPEDTAVYWGQGTQVTVSS | low polyreactivity
15 | QVQLVESGGGLVQAGGSLRLSCAASGNIFYYNAMGWYRQAPGKERELVAAISDSGSSTHYADSVKGRFTISRDNAKNTVYLQMNSLKPEDTAVYYCGARATTNRFRYYYWGQGTQVTVSS | high polyreactivity
16 | QVQLVESGGGLVQAGGSLRLSCAASGNIFYYYAMGWYRQAPGKERELVATNTSGGSTNYADSVKGRFTISRDNAKNTVYLQMNSLKPEDTAVYYCAADRRRTYYWLSSYFEGYYWGQGTQVTVSS | low polyreactivity
17 | QVQLVESGGGLVQAGGSLRLSCAASGNIIAYYAMGWSRQPPGKDRELVAAITDSGGNTFYADSVKGRFTISRDNAKNSVFLQMNSLKPEDTAVYYCAADPDCWGFVYPRYDYWGQGTQVTVSS | low polyreactivity
18 | QVQLVESGGGLVQAGGSLRLSCAASGNIIVENAMGWYRQAPAKERELVAVSTSGTSTYADSVKGRFTISRDNAKITVYLQMNSLKPEDTAVYYCNARRINTLYDYWGQGTQVTVSS | low polyreactivity
19 | QVQLVESGGGLVQAGGSLRLSCAASGNILGYNAMGWYRQAPGKERELVAAITQSGGSTYYADSVKGRFTISRDNAKNTVDLQMNSLIPEDTAVYYCAAVGYYYSALDMDYWGQGTQVTVSS | low polyreactivity
20 | QVQLVESGGGLVQAGGSLRLSCAASGNILLTNAMGWYRQAPGKEREFVAAIRWSGSRTYYADSVKGRFTISRDNAKNTVYLQMNSLKPEDTAVYYCAVRAVWPVSYGYWYYYWGQGTQVTVSS | high polyreactivity
21 | QVQLVESGGGLVQAGGSLRLSCAASGNIRNYGMGCSRQAPGKERELVDAISSGGVRTYYADSVKGRFTLSRDNAKNTVYLQMNSLKPEETAVYYCAVASWYYLYPPGYRAITHDYWGQGTQVTVSS | high polyreactivity
22 | QVQLVESGGGLVQAGGSLRLSCAASGNIYNYAMGWYIQAPGKERELVAAIRSSDGSTYYADSVKGRFTISRDNAKNTVYLQMNSLKPEDTAVYDCARRTRRTSTYYYYGSRYYYWGQGTQVTVSS | high polyreactivity
23 | QVQLVESGGGLVQAGGSLRLSCAASGNTFAQYGMGWYRQAPGKEREFVAAITRRGGSTYYADSVKGRFTISRDNAKNTVYLQMNSLKPEDTAVFYCAAGHYRRRYPSYGLQEYDYWGQGTQVTVSS | high polyreactivity
24 | QVQLVESGGGLVQAGGSLRLSCAASGNTFAVNAMGWYRQAPGKERELVAAISRSGVTTRYADSVKGRFTISRDNAKNTVYLLMNSLKPEDTAVYYCNADPRLRQTRDYWGQGTQVTVSS | high polyreactivity
25 | QVQLVESGGGLVQAGGSLRLSCAASGNTFDGYDMGWYRQAPGNKRELVAAITNTGASTYYADSVKGRCTISRDNAKNTVYLQMNSLKPEDTAVYYCNAQDSYPEDRHGMSYWGQGTQVTVSS | low polyreactivity
26 | QVQLVESGGGLVQAGGSLRLSCAASGNTFDPNAMGWYRQAPGKEREFVAAISTIGSSTYYADSVKGRFTISRDNAKNTVYLQMNSLKPEDTAVYYSNADYFQDRLDYWGQGTQVTVSS | low polyreactivity
27 | QVQLVESGGGLVQAGGSLRLSCAASGNTFDRYAMGWYRQAPGKERELVAAITRSGGNTYYADSVKGRFTISRDNAKNTVYLQMNSLKPEDTAVYYCAAYFFPYYTGYGYWGQGTQVTVSS | high polyreactivity
28 | QVQLVESGGGLVQAGGSLRLSCAASGNTFGIYAMGWYRQAPGKERELVAAISSGTSTNYADSVKGRFTISRDNAKNTVYLQMNSLKPEDTAVYYCNADDQYQDVREDFWGQGTQVTVSS | low polyreactivity
29 | QVQLVESGGGLVQAGGSLRLSCAASGNTFGKYAMGWYRHAPGKERELVAAISKSSGSTYYADSVKGRFTLSRDNAKNTVYLQMNSLKPEDTAVYYCAACWYSYRYSRLGFGSWGQGTQVTVSS | high polyreactivity
30 | QVQLVESGGGLVQAGGSLRLSCAASGNTFGNYGMGWYRQAPGKEREFVAAITSRGTSTYYADSVKGRFTISRDNAKNTVYLQMNSLKPEDTAVYYCNARPRYKYPRYDYWGQGTQVTVSS | high polyreactivity
